From patent US20100015654A1 (INSTITUT DE RECHERCHES CLINIQUES DE MONTREAL I R C M, published 2010)

Legend:
[1] = molecular target: T1, mouse CRACC (mouse, UniProt Q8BHK6 23-333); experiment: co-immunoprecipitation from IL-2-activated mouse NK cells, anti-CRACC immunoblot
T1 construct: whole, on cells; Endogenous protein in NK cell lysates
T1 sequence (looked up): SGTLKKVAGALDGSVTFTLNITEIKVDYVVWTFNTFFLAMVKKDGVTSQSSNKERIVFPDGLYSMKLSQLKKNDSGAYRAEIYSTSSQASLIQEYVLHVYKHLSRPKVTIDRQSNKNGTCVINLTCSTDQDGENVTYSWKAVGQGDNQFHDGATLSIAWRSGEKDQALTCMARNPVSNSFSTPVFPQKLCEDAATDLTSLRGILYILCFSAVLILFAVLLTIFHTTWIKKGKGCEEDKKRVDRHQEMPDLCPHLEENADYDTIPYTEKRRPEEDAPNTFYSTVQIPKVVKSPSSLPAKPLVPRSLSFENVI
Source text: (§1) Association of phosphotyrosine-containing proteins with SAP-related adaptors in mouse NK cells. The indicated SAP-related adaptors were immunoprecipitated from IL-2-activated mouse NK cells, resolved in 8% gels and probed by immunoblotting with anti-phosphotyrosine (P.tyr). The anti-EAT-2 MAbs used for immunoprecipitation react with both EAT-2 and ERT. Anti-CD4 MAb GK1.5 was used as control antibody. IgH: heavy chain of IgG. Efficient immunoprecipitation of the SAP-related adaptors was verified by probing parallel immunoprecipitates with anti-EAT-2/ERT and anti-SAP (data not shown). b. Association of 2B4 with SAP-related adaptors in NK cells. Immunoprecipitates of SAP family adaptors were reprobed by immunoblotting with anti-2B4 (top panels), anti-CRACC (middle panels) and anti-CD84 (bottom panels). The migration of the various SLAM-related receptors was verified by immunoblotting of total cell lysates with the specified antibodies (lane 5).
(§2) Mouse NK cells express three SLAM-related receptors, 2B4, CRACC and CD84, that have apparent molecular masses between 60 and 70 kDa (our unpublished results). To determine if the 70 kDa-tyrosine phosphorylated protein associated with SAP family adaptors was any of these SLAM-related receptors, immunoprecipitates of SAP-related adaptors were probed by immunoblotting with antibodies against each of these SLAM family members (FIG. 5b). […]

[2] = molecular target: T2, mouse CD84 (mouse, UniProt Q18PI6 22-329); experiment: co-immunoprecipitation from IL-2-activated mouse NK cells, anti-CD84 immunoblot
T2 construct: whole, on cells; Endogenous protein in NK cell lysates
T2 sequence (looked up): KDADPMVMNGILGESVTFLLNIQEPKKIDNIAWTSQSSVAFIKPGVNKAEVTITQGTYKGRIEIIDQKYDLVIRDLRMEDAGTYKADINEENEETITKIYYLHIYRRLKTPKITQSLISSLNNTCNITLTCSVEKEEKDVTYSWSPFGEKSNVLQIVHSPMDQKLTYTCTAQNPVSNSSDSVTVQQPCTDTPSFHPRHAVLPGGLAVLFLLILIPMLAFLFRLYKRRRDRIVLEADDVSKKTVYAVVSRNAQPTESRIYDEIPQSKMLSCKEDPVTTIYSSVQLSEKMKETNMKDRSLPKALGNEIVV
Source text: as §1, §2

[3] = molecular target: T3, mouse CD16 (mouse, UniProt P08508 31-261); experiment: co-immunoprecipitation from IL-2-activated mouse NK cells (data not shown)
T3 construct: whole, on cells; Endogenous protein in NK cell lysates
T3 sequence (looked up): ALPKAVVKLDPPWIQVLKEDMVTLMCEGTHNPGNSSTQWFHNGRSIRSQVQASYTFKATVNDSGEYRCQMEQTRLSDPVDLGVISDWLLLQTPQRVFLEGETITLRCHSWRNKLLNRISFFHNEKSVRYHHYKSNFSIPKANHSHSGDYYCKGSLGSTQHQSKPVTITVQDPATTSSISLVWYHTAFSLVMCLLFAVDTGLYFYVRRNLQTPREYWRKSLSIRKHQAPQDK

binding result [1]: no binding
binding result [2]: no binding
binding result [3]: no binding
B1: mouse SAP (other, UniProt O88890 1-126, looked up)
chain: MDAVTVYHGKISRETGEKLLLATGLDGSYLLRDSESVPGVYCLCVLYQGYIYTYRVSQTETGSWSAETAPGVHKRFFRKVKNLISAFQKPDQGIVTPLQYPVEKSSGRGPQAPTGRRDSDICLNAP
notes: Intracellular adaptor made of an SH2 domain and a short tail
